In publication PMC6127294, “Jungle Express is a versatile repressor system for tight transcriptional control” (Nature Communications, 2018):

Target: the molecule itself
Assay: crystal structure; EilR (selenomethionine-labeled) in complex with the duplexed eilOc operator oligonucleotide, 2:1 protein:DNA molar ratio; 0.1 M Li2SO4, 0.1 M MgCl2, 0.1 M HEPES pH 7.5, 20% PEG 3350, 10% hexanediol

B1: EilR (natural protein, Enterobacter lignolyticus)
chain: MGYLNREERRETIMQAAMRVALDQGFTGMTVRNIATAAGVAAGQVHHHFTSSGELKSQAFIRVIREMMDLQRLSRTAGWREQLFSALGSEDGRLEPYIRLWRQAQLLADSDPEIKSAYLLTMNLWHDEAVRIIRAGHAAGEFTLRDSAENIAWRLISLVCGLDGIYVLGMPEVDDAAFTRHLQHVIQLELFS
modifications: selenomethionine-labeled protein for the EilR-eilO crystal structure
notes: 21.6 kDa monomer; also called EilR repressor; EilR-His8 (before cleavage of the tag); source: E. coli harboring pLane-eilR, purified (His-Trap, TEV cleavage, second His-Trap flowthrough)
B1 was tested, and the “stoichiometry N” value was 2.
